Source: patent US20210054097A1
Residue numbers refer to the chain shown, from its start. One block for each binder: values may come before it.

Legend:
Experiment in all cases: peptide ELISA
[1] = target: T1, FX activation peptide 12-mer … (human)
T1 sequence (peptide, C-terminally conjugated to biotin): FDLLDFNQTQPE

[2] = target: T2, FX activation peptide 12-mer … (human); remark: listed apart in the source
T2 sequence (peptide, C-terminally conjugated to biotin): LDPTENPFDLLD

[3] = target: T3, FX activation peptide 12-mer … (human); remark: listed apart in the source
T3 sequence (peptide, C-terminally conjugated to biotin): PFDLLDFNQTQP

[4] = target: T4, FX activation peptide 12-mer … (human); remark: listed apart in the source
T4 sequence (peptide, C-terminally conjugated to biotin): DPTENPFDLLDF

[5] = target: T5, FX activation peptide 12-mer … (human); remark: listed apart in the source
T5 sequence (peptide, C-terminally conjugated to biotin): PTENPFDLLDFN

[6] = target: T6, FX activation peptide 12-mer … (human); remark: listed apart in the source
T6 sequence (peptide, C-terminally conjugated to biotin): LLDFNQTQPERG

[7] = target: T7, FX activation peptide 12-mer … (human); remark: listed apart in the source
T7 sequence (peptide, C-terminally conjugated to biotin): APDSITWKPYDA

[8] = target: T8, FX activation peptide 12-mer … (human); remark: listed apart in the source
T8 sequence (peptide, C-terminally conjugated to biotin): ATSSSGEAPDSI

[9] = target: T9, FX activation peptide 12-mer … (human); remark: listed apart in the source
T9 sequence (peptide, C-terminally conjugated to biotin): DAADLDPTENPF

[10] = target: T10, FX activation peptide 12-mer … (human); remark: listed apart in the source
T10 sequence (peptide, C-terminally conjugated to biotin): DFNQTQPERGDN

[11] = target: T11, FX activation peptide 12-mer … (human); remark: listed apart in the source
T11 sequence (peptide, C-terminally conjugated to biotin): DLDPTENPFDLL

[12] = target: T12, FX activation peptide 12-mer … (human); remark: listed apart in the source
T12 sequence (peptide, C-terminally conjugated to biotin): DLLDFNQTQPER

[13] = target: T13, FX activation peptide 12-mer … (human); remark: listed apart in the source
T13 sequence (peptide, C-terminally conjugated to biotin): DSITWKPYDAAD

[14] = target: T14, FX activation peptide 12-mer … (human); remark: listed apart in the source
T14 sequence (peptide, C-terminally conjugated to biotin): EAPDSITWKPYD

[15] = target: T15, FX activation peptide 12-mer … (human); remark: listed apart in the source
T15 sequence (peptide, C-terminally conjugated to biotin): ENPFDLLDFNQT

[16] = target: T16, FX activation peptide 12-mer … (human); remark: listed apart in the source
T16 sequence (peptide, C-terminally conjugated to biotin): FNQTQPERGDNN

[17] = target: T17, FX activation peptide 12-mer … (human); remark: listed apart in the source
T17 sequence (peptide, C-terminally conjugated to biotin): GEAPDSITWKPY

[18] = target: T18, FX activation peptide 12-mer … (human); remark: listed apart in the source
T18 sequence (peptide, C-terminally conjugated to biotin): ITWKPYDAADLD

[19] = target: T19, FX activation peptide 12-mer … (human); remark: listed apart in the source
T19 sequence (peptide, C-terminally conjugated to biotin): NPFDLLDFNQTQ

[20] = target: T20, FX activation peptide 12-mer … (human); remark: listed apart in the source
T20 sequence (peptide, C-terminally conjugated to biotin): NQTQPERGDNNL

[21] = target: T21, FX activation peptide 12-mer … (human); remark: listed apart in the source
T21 sequence (peptide, C-terminally conjugated to biotin): PDSITWKPYDAA

[22] = target: T22, FX activation peptide 12-mer … (human); remark: listed apart in the source
T22 sequence (peptide, C-terminally conjugated to biotin): PYDAADLDPTEN

[23] = target: T23, FX activation peptide 12-mer … (human); remark: listed apart in the source
T23 sequence (peptide, C-terminally conjugated to biotin): SGEAPDSITWKP

[24] = target: T24, FX activation peptide 12-mer … (human); remark: listed apart in the source
T24 sequence (peptide, C-terminally conjugated to biotin): SITWKPYDAADL

[25] = target: T25, FX activation peptide 12-mer … (human); remark: listed apart in the source
T25 sequence (peptide, C-terminally conjugated to biotin): SSGEAPDSITWK

[26] = target: T26, FX activation peptide 12-mer … (human); remark: listed apart in the source
T26 sequence (peptide, C-terminally conjugated to biotin): SVAQATSSSGEA

[27] = target: T27, FX activation peptide 12-mer … (human); remark: listed apart in the source
T27 sequence (peptide, C-terminally conjugated to biotin): TENPFDLLDFNQ

[28] = target: T28, FX activation peptide 12-mer … (human); remark: listed apart in the source
T28 sequence (peptide, C-terminally conjugated to biotin): TSSSGEAPDSIT

[29] = target: T29, FX activation peptide 12-mer … (human); remark: listed apart in the source
T29 sequence (peptide, C-terminally conjugated to biotin): TWKPYDAADLDP

[30] = target: T30, FX activation peptide 12-mer … (human); remark: listed apart in the source
T30 sequence (peptide, C-terminally conjugated to biotin): VAQATSSSGEAP

[31] = target: T31, FX activation peptide 12-mer … (human); remark: listed apart in the source
T31 sequence (peptide, C-terminally conjugated to biotin): YDAADLDPTENP

- ELISA signal relative to background [1]: 1.58
- ELISA signal relative to background [2]: 1.91
- ELISA signal relative to background [3]: 1.41
B1: Nb 729A04 (VHH, not shown: small tags and cut ends)
VHH: EVQLVESGGGVVQPGGSLRLSCAASGFTFSDYAMSWVRQAPGKGLEWVSGITSGGGRTYYADSVKGRFTISRDNSKNTLYLQMNSLRPEDTALYYCAAVRTLGLRGSYDYWGQGTLVTVSS

- ELISA signal relative to background [4]: 1.68
- ELISA signal relative to background [5]: 1.62
B2: Nb 730C03 (VHH, not shown: small tags and cut ends)
VHH: B1 VHH with A23V, G55S, L79V, V99A, R100I, T101L, L102R, L104Y, G106K, S107T

- ELISA signal relative to background [6]: 1.88
B3: Nb 702C12 (VHH, not shown: small tags and cut ends)
VHH: EVQLVESGGGVVQPGGSLRLSCVASGRTFSRYAMGWFRQAPGKEREFVAAISRRGGSTNYADSVKGRFTISRDNSKNTVYLQMNSLRPEDTALYYCAADYSSGDGYLDYWGQGTLVTVSS

- ELISA signal relative to background [4]: 1.95
- ELISA signal relative to background [2]: 1.58
B4: Nb 729C08 (VHH, not shown: small tags and cut ends)
VHH: EVQLVESGGGVVQPGGSLRLSCAASGFTFSDYAMSWVRQAPGKGLEWVSGITGGGRTYYADSVKGRFTISRDNSKNTLYLQMNSLRPEDTALYYCAAAILTRTRRTYDYWGQGTLVTVSS

- ELISA signal relative to background [7]: 2.29
- ELISA signal relative to background [8]: 2.27
- ELISA signal relative to background [9]: 2.3
- ELISA signal relative to background [10]: 2.25
- ELISA signal relative to background [11]: 2.48
- ELISA signal relative to background [12]: 2.45
- ELISA signal relative to background [4]: 2.27
- ELISA signal relative to background [13]: 2.18
- ELISA signal relative to background [14]: 2.35
- ELISA signal relative to background [15]: 2.88
- ELISA signal relative to background [1]: 3.01
- ELISA signal relative to background [16]: 2.16
- ELISA signal relative to background [17]: 2.26
- ELISA signal relative to background [18]: 2.08
- ELISA signal relative to background [2]: 2.29
- ELISA signal relative to background [6]: 2.3
- ELISA signal relative to background [19]: 2.28
- ELISA signal relative to background [20]: 2.02
- ELISA signal relative to background [21]: 2.4
- ELISA signal relative to background [3]: 2.5
- ELISA signal relative to background [5]: 2.35
- ELISA signal relative to background [22]: 2.05
- ELISA signal relative to background [23]: 2.15
- ELISA signal relative to background [24]: 2.28
- ELISA signal relative to background [25]: 2.01
- ELISA signal relative to background [26]: 2.25
- ELISA signal relative to background [27]: 2.54
- ELISA signal relative to background [28]: 2.2
- ELISA signal relative to background [29]: 2.26
- ELISA signal relative to background [30]: 2.13
- ELISA signal relative to background [31]: 2.21
B5: Nb 721E08 (VHH, not shown: small tags and cut ends)
VHH: EVQLVESGGGVVQPGGSLRLSCAASGRTFSTYSMGWFRQAPGKEREFVAAITRRGSRTYYADSVKGRFTISRDNSKNTVYLQMNSLRPEDTALYYCAADRRPADSYLDYWGQGTLVTVSS

- ELISA signal relative to background [4]: 1.51
- ELISA signal relative to background [15]: 1.56
- ELISA signal relative to background [1]: 1.41
- ELISA signal relative to background [19]: 1.29
- ELISA signal relative to background [3]: 1.5
- ELISA signal relative to background [5]: 1.61
- ELISA signal relative to background [27]: 1.74
B6: Nb 701C06 (VHH, not shown: small tags and cut ends)
VHH: B5 VHH with S33A, T52S, S56G, R100A, R101T, P102A, A103R, S105G, Y106L

- ELISA signal relative to background [4]: 1.39
- ELISA signal relative to background [15]: 1.27
- ELISA signal relative to background [19]: 0.96
- ELISA signal relative to background [3]: 1.13
- ELISA signal relative to background [5]: 1.29
- ELISA signal relative to background [27]: 1.44
B7: Nb 701D07 (VHH, not shown: small tags and cut ends)
VHH: B5 VHH with R27G, F29L, T31R, S33A, R100L, R101A, A103G, S105Y, Y106A
